The supplement of paper PMC12667976
± gives the standard error.

B1: library; numbered along this chain (parent)
chain: MATDAALRRLLRLHRTEIAVAVDSAFPLLHALADHDVVPEDKFQETLHLKEKEGCPQAFHALLSWLLTQDSTAILDFWRVLFKDYNLERYGRLQPILDSFPKDVDLSQPRKGRKPPAVPKALVPPPRLPTKRKASEEARAAAPAALTPRGTASPGSQLKAKPPKKPESSAEQQRLPLGNGIQTMSASVQRAVAMSSGDVPGARGAVEGILIQQVFESGGSKKCIQVGGEFYTPSKFEDSGSGKNKARSSSGPKPLVRAKGAQGAAPGGGEARLGQQGSVPAPLALPSDPQLHQKNEDECAVCRDGGELICCDGCPRAFHLACLSPPLREIPSGTWRCSSCLQATVQEVQPRAEEPRPQEPPVETPLPPGLRSAGEEVRGPPGEPLAGMDTTLVYKHLPAPPSAAPLPGLDSSALHPLLCVGPEGQQNLAPGARCGVCGDGTDVLRCTHCAAAFHWRCHFPAGTSRPGTGLRCRSCSGDVTPAPVEGVLAPSPARLAPGPAKDDTASHEPALHRDDLESLLSEHTFDGILQWAIQSMARPAAPFPS

Variants of: B1
Assay: AIRE transcriptional activation functional score (insulin promoter-GFP; nonsense median 0, synonymous median 1) (normalised score); higher = higher AIRE activity (more reporter activation)
Details: with insulin promoter-GFP reporter in HEK293
Experimental: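 Deep mutational scan of full-length human AIRE (codon-optimized cDNA, DT-POPCode NNN libraries over three regions) integrated at a Bxb1 landing pad in HEK293 cells carrying an insulin core promoter-GFP reporter at a Flp-In site. Cells were sorted for the top 10% GFP about 14 days after transfection. Variant frequency log-ratios (select vs non-select, TileSeq) were rescaled so that the nonsense median is 0 and the synonymous median is 1, then averaged over biological replicates.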

AIRE transcriptional activation functional score, by site and new letter:
R79: I 0.217 ± 0.23, L 0.11 ± 0.67, A 0.0777 ± 0.15, W 0.0958 ± 0.034, V 0.88 ± 0.41, S 0.372 ± 0.52, M -0.695 ± 0.077
L87: C 0.115 ± 0.26, A 0.0518 ± 0.52
N86: Q -0.241 ± 0.33, S 0.134 ± 0.59, H -0.275 ± 0.44, T -0.124 ± 0.51, D -1.05 ± 0.28, G -0.0879 ± 0.18, Y 0.0334 ± 0.18, W -0.448 ± 0.18, E -0.323 ± 0.33, A -0.248 ± 0.42, C 0.345 ± 0.37, V 1.33 ± 0.45, R -0.161 ± 0.52, M 1.34 ± 0.48, K -0.0593 ± 0.28, P 0.153 ± 0.6, F -0.398 ± 0.45, I 0.0139 ± 0.67, L 0.306 ± 0.53
F82: R 0.341 ± 1.1, A -0.904 ± 0.4, I 0.234 ± 0.36, M -1.23 ± 0.75, T -0.086 ± 0.55, D 0.364 ± 0.38, Q 0.378 ± 0.069, P -0.365 ± 0.77, V 0.0231 ± 0.15, L 0.0208 ± 0.29, H 0.0485 ± 0.13, S 0.375 ± 0.67, G 0.401 ± 0.45, N -4.23 ± 0.85, K -0.492 ± 0.079, C -0.279 ± 0.34, W -0.557 ± 0.12, Y 0.443 ± 0.26
D84: E 0.774 ± 0.23, A 0.125 ± 0.24, P 0.652 ± 0.47, C -0.0537 ± 0.25, S 1.11 ± 0.31, R 0.794 ± 0.32, K -0.063 ± 1.1, N 0.535 ± 0.19, T 0.74 ± 0.53, G 0.841 ± 0.47, W 1.68 ± 0.046, L -0.0937 ± 0.33, I -0.4 ± 0.27, Q 0.343 ± 0.5, Y 0.473 ± 0.34, V -0.00793 ± 0.2, H 0.341 ± 0.18, F -0.14 ± 0.21, M -0.309 ± 0.14
K83: L 0.753 ± 0.27, H 0.338 ± 0.23, N 0.0819 ± 0.18, G -0.0227 ± 0.29, E -0.351 ± 0.23, P -0.158 ± 0.87, S 0.122 ± 0.21, D -0.0712 ± 0.38, F 0.177 ± 0.099, A 0.537 ± 0.43, C 0.194 ± 0.21, T 0.432 ± 0.38, Y -0.194 ± 0.5, V -0.175 ± 0.24, I 0.0909 ± 0.16, M -0.821 ± 0.059, R 0.00955 ± 0.44, Q 0.546 ± 1, W 0.152 ± 0.05
